Test results as given in paper PMC5748159.
Like-named read-outs stand apart in the source and are kept apart here. Each block holds one substance with its values, some of them ahead of it.

Columns and labels:
Test in all cases: SEC
[1] = molecular target: Human S100A7 (psoriasin), reduced, with Cys47 and Cys96 as free thiols (human) (UniProt P31151)
[2] = molecular target: Human S100A7 (psoriasin), oxidized, with Cys47–Cys96 disulfide bond (human) (UniProt P31151)
[3] = molecular target: S100A7(C47S)(C96S) homodimer (human) (UniProt P31151)
[4] = molecular target: S100A7(C47S)(C96S) homodimer (human) (UniProt P31151); remark: listed apart in the source
[5] = molecular target: S100A7(C47A)(C96A) homodimer (human) (UniProt P31151)
[6] = molecular target: S100A7(C47A)(C96A) homodimer (human) (UniProt P31151); remark: listed apart in the source

- stoichiometry N [1]: 2
Substance: Human S100A7 (psoriasin), reduced, with Cys47 and Cys96 as free thiols (from UniProt P31151 1-101) (natural protein)

- stoichiometry N [2]: 2
Substance: Human S100A7 (psoriasin), oxidized, with Cys47–Cys96 disulfide bond (from UniProt P31151 1-101) (natural protein)

- stoichiometry N [3]: 2
- stoichiometry N [4]: 2
Substance: S100A7(C47S)(C96S) homodimer (from UniProt P31151 1-101) (natural protein)

- stoichiometry N [5]: 2
- stoichiometry N [6]: 2
Substance: S100A7(C47A)(C96A) homodimer (from UniProt P31151 1-101) (natural protein)
